Patent US10772972B2, “Anti-STEAP2 antibody drug conjugates, and compositions and uses thereof” (Regeneron Pharmaceuticals, Inc., priority 2016, dated 2020)

Legend:
[1] = test system: human prostate cancer C4-2 cells (xenograft); assay: C4-2/human PBMC co-implant xenograft in NSG mice, immediate dosing; assay type: in vivo, mouse; conditions: C4-2/NSG; for Tumor growth compared to isotype control at study endpoint (in words): 0.1 or 0.01 mg/kg
Description: To assess the in vivo efficacy of the anti-STEAP2/anti-CD3 bispecifics in human tumor xenograft studies, NOD scid gamma (NSG) mice (Jackson Laboratories, Bar Harbor, Me.) were co-implanted with human peripheral blood mononuclear cells (PBMCs; ReachBio LLC., Seattle, Wash.) along with human prostate cancer C4-2 cells (MD Anderson Cancer Center, Houston Tex.) which endogenously express STEAP2.
Briefly, 5.0×10^6 C4-2 cells were co-implanted subcutaneously (s.c.) with 1.25×10^6 human PBMCs in a 50:50 mix of matrigel matrix (BD Biosciences, San Jose, Calif.) into the right flank of male NSG mice. Mice were treated intraperitoneally (i.p.) on the day of implantation (immediate treatment model) with anti-STEAP2/anti-CD3 bispecifics BSSTEAP2/CD3-001, BSSTEAP2/CD3-002 or BSSTEAP2/CD3-003, or an isotype control, at a dose of 0.1 or 0.01 mg/kg (N=5 mice/group).
Tumor size was measured 2×/week using calipers and tumor volume calculated as Volume=(length×width^2)/2. Data is shown as tumor size (mm^3) at study endpoint, 46 d post-tumor implantation (Table 7).

cynomolgus T cells = assay: FACS binding titration of STEAP2xCD3 bispecifics on cynomolgus T cells; conditions: 66.6 nM to 0.001 nM, 30 minutes at 4° C.
Experimental: FACS Binding Titration on Jurkat Cells, PC3_STEAP2/1 Cells and cynomolgus T Cells: Flow cytometric analysis was utilized to determine binding of STEAP2×CD3 bispecific antibodies to Jurkat, PC3_STEAP2/1 chimeric and cynomolgus T cells, followed by detection with a phycoerythrin (PE)-labeled anti-human IgG antibody. Briefly, 2×10^5 cells/well were incubated for 30 minutes at 4° C. with a serial dilution of STEAP2×CD3 bispecific antibodies or control antibody (a human IgG1 antibody that binds a feline antigen with no cross-reactivity to STEAP2 or human or cynomolgus CD3) ranging from 66.6 nM to 0.001 nM. After incubation, the cells were washed twice with cold PBS containing 1% filtered FBS and a PE-conjugated anti-human secondary antibody was added to the cells and incubated for an additional 30 minutes. Wells containing no antibody or secondary antibody only were used as a control. After incubation, cells were washed, re-suspended in 200 μL cold PBS containing 1% filtered FBS and analyzed by flow cytometry on a BD FACS Canto II.

monkey PBMCs = assay: T cell proliferation assay, cynomolgus PBMC; assay type: cell-based; conditions: for Cynomolgus PBMC proliferation activity (in words): across donors tested
Experimental: Thawed human or freshly isolated monkey PBMCs (50,000 cells/well) were incubated with 3-fold (human, concentration range: 5E-10M to 2.82E-15M; cynomolgus, concentration range: 1E-09M to 4.57E-13M) serial dilutions of STEAP2×CD3 bispecifics or isotype control in complete medium (RPMI supplemented with 10% FBS, 100 U/mL penicillin, 100 μg/mL streptomycin, 292 μg/mL L-glutamine) and a fixed concentration (human: 200 ng/mL, cyno: 500 ng/mL) of a commercial anti-CD28 antibody (Biolegend, Catalog #302914) in white flat bottom 96-well plates for 72 hours at 37° C. Isolated monkey PBMCs were from two donors (identified as mk8781M or mk9381M). Following incubation, CellTiter Glo® (Promega, Cat #7573) was added and luminescence, as readout for cell viability, was measured using a VICTOR X5 multi-label plate reader. Cell titer was calculated by dividing the luminescence of stimulated cells by the baseline luminescence of unstimulated cells.

[2] = test system: C4-2 cells (high-STEAP2 expressing); assay: Internalization and total binding on C4-2 cells (imaging, qualitative score); assay type: cell-based, human; parameters: key: − (no internalization or binding); +(weak internalization or binding); ++(moderate internalization or binding); +++(robust internalization or binding); conditions: 10 μg/ml antibody
Experimental: Briefly, 20,000 C4-2 cells were seeded in PDL coated 96 well plates. The next day, cells were incubated with anti-human STEAP2 antibodies (10 μg/ml) for 30 min on ice followed by two PBS washes. Cells were then incubated with alexa488-conjugated anti-hFc Fab secondary antibody for 30 minutes on ice, followed by two additional PBS washes. Antibodies were allowed to internalize for 1 h at 37° C. in internalization buffer (PBS+2% FBS) or were maintained at 4° C. Cells were fixed in 4% formaldehyde, nuclei were stained with DRAQ5 (Cell signaling), and images were acquired on the ImageXpress micro XL (Molecular Devices).
A qualitative visual assessment of the total binding intensity and the intensity of antibodies that had internalized into vesicles was performed and scored according to the following criteria: − (no internalization or binding), +(weak internalization or binding), ++(moderate internalization or binding) and +++(robust internalization or binding).

[3] = 0.01 mg/kg i.p. on day of implantation
[4] = 0.1 mg/kg i.p. on day of implantation

B1: BSSTEAP2/CD3-002: STEAP2×CD3 bispecific: anti-STEAP2 HCVR H2M11162N (SEQ 250), anti-CD3 HCVR CD3-VH-G5 (SEQ 1762), common LCVR SEQ 258 (antibody, V domains shown)
VH 1: QVQLQQSGPGLVKPSQTLSLTCAISGDSVSSNRAAWNWIRQSPSRGLQWLGRTYYRSKWYNDYAVSLRSRITINPVTSKNQVALHMNSVTPEDTAVYYCARAGIVVVPGPETFYYYDHGLDVWGQGTTVTVSS
VH 2: EVQLVESGGGLVQPGRSLRLSCAASGFTFDDYSMHWVRQAPGKGLEWVSGISWNSGSIGYADSVKGRFTISRDNAKNSLYLQMNSLRAEDTALYYCAKDGSGYGKFYYYGMDVWGQGTTVTVSS
VL: DIQMTQSPSSLSASVGDRVTITCRASQSIRSYLNWYQQKPGKAPELLIHAASSLQSGVPSRFSGSGSGTDFTLTISSLQPEDFASYYCQQSYSAPPITFGQGTRLEIK
Tumor Size (mm^3) 46 d post-tumor implantation (mean ± SD) [1, 3]: 17.0 ± 8.0 mm^3 | Tumor Size (mm^3) 46 d post-tumor implantation (mean ± SD) [1, 4]: 15.0 ± 12.0 mm^3 | Tumor growth compared to isotype control at study endpoint (in words) [1]: significantly suppressed tumor growth

B2: BSSTEAP2/CD3-003: STEAP2×CD3 bispecific: anti-STEAP2 HCVR H2M11162N (SEQ 250), anti-CD3 HCVR CD3-VH-G20 (SEQ 1866), common LCVR SEQ 258 (antibody, V domains shown)
VH 1: QVQLQQSGPGLVKPSQTLSLTCAISGDSVSSNRAAWNWIRQSPSRGLQWLGRTYYRSKWYNDYAVSLRSRITINPVTSKNQVALHMNSVTPEDTAVYYCARAGIVVVPGPETFYYYDHGLDVWGQGTTVTVSS
VH 2: EVQLVESGGGLVQPGRSLRLSCAASGFTFDDYSMHWVRQAPGKGLEWVSGISWNSGSIGYADSVKGRFTISRDNAKNSLYLQMNSLRAEDTALYYCAKYGSGYGKFYYYGMDVWGQGTTVTVSS
VL: DIQMTQSPSSLSASVGDRVTITCRASQSIRSYLNWYQQKPGKAPELLIHAASSLQSGVPSRFSGSGSGTDFTLTISSLQPEDFASYYCQQSYSAPPITFGQGTRLEIK
Tumor Size (mm^3) 46 d post-tumor implantation (mean ± SD) [1, 3]: 25.0 ± 21.0 mm^3 | Tumor Size (mm^3) 46 d post-tumor implantation (mean ± SD) [1, 4]: 19.0 ± 12.0 mm^3 | Tumor growth compared to isotype control at study endpoint (in words) [1]: significantly suppressed tumor growth

B3: BSSTEAP2/CD3-004: STEAP2×CD3 bispecific: anti-STEAP2 H1H7814N (SEQ 218), anti-CD3 H1H7251P (SEQ 1570), common LCVR SEQ 226 (antibody, V domains shown)
VH 1: QVQLVESGGGVVQPGRSLRLSCVASGFTISSYGMNWVRQAPGKGLEWVAVISYDGGNKYSVDSVKGRFTISRDNSKNTLYLQMNSLRAEDSAVYYCARGRYFDLWGRGTLVTVSS
VH 2: EVQLVESGGGLVQPGRSLRLSCAASGFTFADYTMHWVRQGPGTGLEWVSDIGWSGGSLGYADSVKGRFTISRDNAKNSLYLEMNNLRPEDTALYYCVKDKSGYGKFQYGLDVWGQGTTVTVSS
VL: DIQMTQSPSTLSASVGDRVTITCRASQSISSWLAWYQQKPGRAPNLLISKASSLKSGVPSRFSGSGSGTEFTLTVSSLQPDDFATYYCQQYYSYSYTFGQGTKLEIK
EC50 (cynomolgus T cells): 1.99 nM | Cynomolgus PBMC proliferation activity (in words) (monkey PBMCs): donor dependent

B4: BSSTEAP2/CD3-006: STEAP2×CD3 bispecific: anti-STEAP2 H1H11162 (SEQ 250), anti-CD3 CD3-VH-P (SEQ 1882), common LCVR SEQ 258 (antibody, V domains shown)
VH 1: QVQLQQSGPGLVKPSQTLSLTCAISGDSVSSNRAAWNWIRQSPSRGLQWLGRTYYRSKWYNDYAVSLRSRITINPVTSKNQVALHMNSVTPEDTAVYYCARAGIVVVPGPETFYYYDHGLDVWGQGTTVTVSS
VH 2: EVQLVESGGGLVQPGRSLRLSCVASGFTFDDYSMHWVRQAPGKGLEWVSGISWNSGSKDYADSVKGRFTISRDNAKNSLYLQMNSLRAEDTALYYCAKYGSGYGKFYHYGLDVWGQGTTVTVSS
VL: DIQMTQSPSSLSASVGDRVTITCRASQSIRSYLNWYQQKPGKAPELLIHAASSLQSGVPSRFSGSGSGTDFTLTISSLQPEDFASYYCQQSYSAPPITFGQGTRLEIK
EC50 (cynomolgus T cells): 7.99 nM | Cynomolgus PBMC proliferation activity (in words) (monkey PBMCs): induced robust cynomolgus PBMC proliferation in all donors tested | EC50 (monkey PBMCs; donor mk9381M, anti-CD28 500 ng/mL, 72 hours, read-out: Cyno PBMC Proliferation [M] (donor)): 1.53e-11 M

B5: H1H11880P: anti-STEAP2 antibody, HCVR/LCVR SEQ ID NOs 34/42 (antibody, V domains shown)
VH: EVQLVESGGGLVQPGGSLRLSCAASGFTFSTYAMHWVRQAPGKGLQHVSTISTNGVNTYYADSVKGRFTISRDNSKSTLYLQMGSLRAEDMAVYYCARDKDFWSGYFDYWGQGTLVTVSS
VL: EIVMTQSPGTLSVSPGERATLSCRASQSVSSNLAWYHQKPGQAPRLLIYGASTRATGFPARFSGSGSGTEFTLTISSLQSEDFAAYYCQQYNNWPITFGQGTRLEIK
Internalization (37° C., 1 h) Qualitative Score [2]: + | Total Binding (4° C.) Qualitative Score [2]: +

B6: H2M11162N: anti-STEAP2 antibody, mouse IgG2 Fc, HCVR/LCVR SEQ ID NOs 250/258 (antibody, V domains shown)
VH: QVQLQQSGPGLVKPSQTLSLTCAISGDSVSSNRAAWNWIRQSPSRGLQWLGRTYYRSKWYNDYAVSLRSRITINPVTSKNQVALHMNSVTPEDTAVYYCARAGIVVVPGPETFYYYDHGLDVWGQGTTVTVSS
VL: DIQMTQSPSSLSASVGDRVTITCRASQSIRSYLNWYQQKPGKAPELLIHAASSLQSGVPSRFSGSGSGTDFTLTISSLQPEDFASYYCQQSYSAPPITFGQGTRLEIK
modifications: mouse IgG2 Fc
Internalization (37° C., 1 h) Qualitative Score [2]: +++ | Total Binding (4° C.) Qualitative Score [2]: +++

B7: H2M11164N: anti-STEAP2 antibody, mouse IgG2 Fc, HCVR/LCVR SEQ ID NOs 282/290 (antibody, V domains shown)
VH: QVQLQQSGPGLVKPSQTLSLTCVISGDSVSTNSAAWNWIRQSPSRGLEWLGRTYYRSKWYNDYAVSVRSRITINPVTSKNQVALHLNSVTPEDTAVYYCARAGIVVVPGPETYYYYYHGLDVWGQGTTVTVSS
VL: DIQMTQSPSSLSASVGDRVTITCRASQNIRSYLNWYQQKPGKAPKLLIHVASSLQSGVPSRFSGSGSGTDFTLTISSLQPEDFATYYCQQSYSTPPITFGHGTRLEIK
modifications: mouse IgG2 Fc
Internalization (37° C., 1 h) Qualitative Score [2]: +++ | Total Binding (4° C.) Qualitative Score [2]: +++

B8: H1H7814N: human-Fc anti-STEAP2 antibody, HCVR/LCVR SEQ ID NOs 218/226 (antibody, V domains shown)
VH: QVQLVESGGGVVQPGRSLRLSCVASGFTISSYGMNWVRQAPGKGLEWVAVISYDGGNKYSVDSVKGRFTISRDNSKNTLYLQMNSLRAEDSAVYYCARGRYFDLWGRGTLVTVSS
VL: DIQMTQSPSTLSASVGDRVTITCRASQSISSWLAWYQQKPGRAPNLLISKASSLKSGVPSRFSGSGSGTEFTLTVSSLQPDDFATYYCQQYYSYSYTFGQGTKLEIK
modifications: human Fc
Internalization (37° C., 1 h) Qualitative Score [2]: + | Total Binding (4° C.) Qualitative Score [2]: +
